Among the data in publication PMC10140475 are Kd values, retold here.

Some results are limits rather than exact numbers.

One may read the Kd as a measure of binding affinity in units of concentration.

Common to all, as to assay: SPR
In general terms: Surface plasmon resonance follows binding to a sensor surface in real time, without labels.

One test concerns the target eOD-GT8.
A further test deals with CH31 (mature). The note with it: antibody concentrations 0.98 nM-1,000 nM; parent: <1.
Another test deals with VRC01 (mature). The settings on record: antibody concentrations 0.98 nM-1,000 nM; parent: <10.
A further test has as its target CH31 (germline). The note with it: antibody concentrations 0.98 nM-1,000 nM; parent: N/A.
The next test concerns the target VRC01 (germline). The settings on record: antibody concentrations 0.98 nM-1,000 nM; parent: N/A.

On to gl-CH31, for which the Kd in the test with eOD-GT8 came out at 11.9 µM.

With “BG505 SOSIP trimer (fully glycosylated) (from UniProt Q2N0S6)”, the equilibrium dissociation constant (Kd) is 0.14 nM with CH31 (mature), less than 0.1 nM in the test with VRC01 (mature), 4 µM with CH31 (germline) and 670 nM with VRC01 (germline).
